Key:
Experiment in all cases: ITC
[1] = molecular target: wild-type HasR (WT-HasR) (Serratia marcescens)
[2] = molecular target: double mutant HasR (Arg297Ala/Asn800Ala), DM-HasR (Serratia marcescens)
[3] = molecular target: single mutant HasR (Ile671Gly), Ile671Gly-HasR (Serratia marcescens)

Binder | Ka [1] [M⁻¹] | dH [1] [kcal/M] | stoichiometry N [1] | Ka [2] [M⁻¹] | dH [2] [kcal/M] | stoichiometry N [2] | Ka [3] [M⁻¹] | dH [3] [kcal/M] | stoichiometry N [3]
heme-free HasA (apoHasA) (natural protein) MAFSVNYDSSFGGYSIHDYLGQWASTFGDVNHTNGNVTDANSGGFYGGSLSGSQYAISSTANQVTAFVAGGNLTYTLFNEPAHTLYGQLDSLSFGDGLSGGDTSPYSIQVPDVSFGGLNLSSLQAQGHDGVVHQVVYGLMSGDTGALETALNGILDDYGLSVNSTFDQVAAATAVGVQHADSPELLAA | 1.7e+08 | -43 | 0.92 | 1.53e+07 | -26 | 1.05 | 1.8e+07 | -54 | 1.06
heme-loaded HasA (holoHasA) (natural protein) MAFSVNYDSSFGGYSIHDYLGQWASTFGDVNHTNGNVTDANSGGFYGGSLSGSQYAISSTANQVTAFVAGGNLTYTLFNEPAHTLYGQLDSLSFGDGLSGGDTSPYSIQVPDVSFGGLNLSSLQAQGHDGVVHQVVYGLMSGDTGALETALNGILDDYGLSVNSTFDQVAAATAVGVQHADSPELLAA | 1.1e+06 | -21 | 1.11 | 2.4e+06 | -15 | 1.02 | 9.4e+07 | -46 | 0.99
